Results taken from article PMC2121072 (The Journal of Cell Biology, 1996).

Tests used:
PDZ 1+2 module = assay: Blot overlay assay; assay type: binding, human; settings: data not shown
[1] = tested on: protease-resistant module of hDlg containing PDZ domains 1 and 2; settings: ref Lue et al., 1995 [Abstract #1557]; cited from earlier work
[2] = tested on: three PDZ domains of hDlg; settings: ref Lue et al., 1994; cited from earlier work
GST-hDlg fusion protein = GST-hDlg fusion protein (Homo sapiens, UniProt Q12959); assay: Binding of ezrin / PTP-H1 to GST-hDlg; settings: PTP-H1 expressed in baculovirus system; data not shown

Row | Molecule | binding of protein 4.1 to PDZ 1+2 module (PDZ 1+2 module) | binding to protease-resistant module [1] | affinity for three PDZ domains vs 4.1B (I3) domain [2] | interaction with GST-hDlg (GST-hDlg fusion protein)
1 | protein 4.1: native protein 4.1 isolated from human RBCs (protein, UniProt P11171 1-864, looked up) Protein 4.1: MTTEKSLVTEAENSQHQQKEEGEEAINSGQQEPQQEESCQTAAEGDNWCEQKLKASNGDTPTHEDLTKNKERTSESRGLSRLFSSFLKRPKSQVSEEEGKEVESDKEKGEGGQKEIEFGTSLDEEIILKAPIAAPEPELKTDPSLDLHSLSSAETQPAQEELREDPDFEIKEGEGLEECSKIEVKEESPQSKAETELKASQKPIRKHRNMHCKVSLLDDTVYECVVEKHAKGQDLLKRVCEHLNLLEEDYFGLAIWDNATSKTWLDSAKEIKKQVRGVPWNFTFNVKFYPPDPAQLTEDITRYYLCLQLRQDIVAGRLPCSFATLALLGSYTIQSELGDYDPELHGVDYVSDFKLAPNQTKELEEKVMELHKSYRSMTPAQADLEFLENAKKLSMYGVDLHKAKDLEGVDIILGVCSSGLLVYKDKLRINRFPWPKVLKISYKRSSFFIKIRPGEQEQYESTIGFKLPSYRAAKKLWKVCVEHHTFFRLTSTDTIPKSKFLALGSKFRYSGRTQAQTRQASALIDRPAPHFERTASKRASRSLDGAAAVDSADRSPRPTSAPAITQGQVAEGGVLDASAKKTVVPKAQKETVKAEVKKEDEPPEQAEPEPTEAWKVEKTHIEVTVPTSNGDQTQKLAEKTEDLIRMRKKKRERLDGENIYIRHSNLMLEDLDKSQEEIKKHHASISELKKNFMESVPEPRPSEWDKRLSTHSPFRTLNINGQIPTGEGPPLVKTQTVTISDNANAVKSEIPTKDVPIVHTETKTITYEAAQTDDNSGDLDPGVLLTAQTITSETPSSTTTTQITKTVKGGISETRIEKRIVITGDADIDHDQVLVQAIKEAKEQHPDMSVTKVVVHQETEIADE | no binding | binds | significantly lower affinity | –
2 | PTP-H1: tyrosine phosphatase expressed in the baculovirus expression system (protein) MTSRLRALGGRINNIRTSELPKEKTRSEVICSIHFLDGVVQTFKVTKQDTGQVLLDMVHNHLGVTEKEYFGLQHDDDSVDSPRWLEASKAIRKQLKGGFPCTLHFRVRFFIPDPNTLQQEQTRHLYFLQLKMDICEGRLTCPLNSAVVLASYAVQSHFGDYNSSIHHPGYLSDSHFIPDQNEDFLTKVESLHEQHSGLKQSEAESCYINIARTLDFYGVELHSGRDLHNLDLMIGIASAGVAVYRKYICTSFYPWVNILKISFKRKKFFIHQRQKQAESREHIVAFNMLNYRSCKNLWKSCVEHHTFFQAKKLLPQEKNVLSQYWTMGSRNTKKSVNNQYCKKVIGGMVWNPAMRRSLSVEHLETKSLPSRSPPITPNWRSPRLRHEIRKPRHSSADNLANEMTYITETEDVFYTYKGSLAPQDSDSEVSQNRSPHQESLSENNPAQSYLTQKSSSSVSPSSNAPGSCSPDGVDQQLLDDFHRVTKGGSTEDASQYYCDKNDNGDSYLVLIRITPDEDGKFGFNLKGGVDQKMPLVVSRINPESPADTCIPKLNEGDQIVLINGRDISEHTHDQVVMFIKASRESHSRELALVIRRRAVRSFADFKSEDELNQLFPEAIFPMCPEGGDTLEGSMAQLKKGLESGTVLIQFEQLYRKKPGLAITFAKLPQNLDKNRYKDVLPYDTTRVLLQGNEDYINASYVNMEIPAANLVNKYIATQGPLPHTCAQFWQVVWDQKLSLIVMLTTLTERGRTKCHQYWPDPPDVMNHGGFHIQCQSEDCTIAYVSREMLVTNTQTGEEHTVTHLQYVAWPDHGVPDDSSDFLEFVNYVRSLRVDSEPVLVHCSAGIGRTGVLVTMETAMCLTERNLPIYPLDIVRKMRDQRAMMVQTSSQYKFVCEAILRVYEEGLVQMLDPS | – | – | – | no interaction
